Measured values: publication PMC6995596, “The Plasma Factor XIII Heterotetrameric Complex Structure: Unexpected Unequal Pairing within a Symmetric Complex” (Biomolecules, 2019)

T1: recombinant FXIII-B (coagulation factor XIII B subunit) (human, UniProt P05160 21-661)
T1 chain: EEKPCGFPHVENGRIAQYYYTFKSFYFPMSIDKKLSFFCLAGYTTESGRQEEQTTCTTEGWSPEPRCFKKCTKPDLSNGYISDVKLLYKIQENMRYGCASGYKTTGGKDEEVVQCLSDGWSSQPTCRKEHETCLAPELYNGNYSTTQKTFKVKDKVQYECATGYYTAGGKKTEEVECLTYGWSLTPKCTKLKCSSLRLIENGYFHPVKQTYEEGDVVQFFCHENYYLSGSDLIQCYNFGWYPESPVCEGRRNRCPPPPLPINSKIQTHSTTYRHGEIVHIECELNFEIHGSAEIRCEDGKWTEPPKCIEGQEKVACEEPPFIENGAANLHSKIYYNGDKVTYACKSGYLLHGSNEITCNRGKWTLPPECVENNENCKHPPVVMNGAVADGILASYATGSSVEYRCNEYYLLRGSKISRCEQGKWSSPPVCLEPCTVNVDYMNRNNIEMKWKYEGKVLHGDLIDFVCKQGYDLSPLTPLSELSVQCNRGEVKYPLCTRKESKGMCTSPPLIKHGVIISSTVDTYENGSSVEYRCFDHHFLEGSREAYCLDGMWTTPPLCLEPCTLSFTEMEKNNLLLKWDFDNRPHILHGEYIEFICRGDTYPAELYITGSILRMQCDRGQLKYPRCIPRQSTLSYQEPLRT


What was measured:
[1] = target: T1, recombinant FXIII-B (coagulation factor …); test: ITC; event 2: M1A1 + A1 ↔ M1A2 (second site)
[2] = target: recombinant FXIII-A2 (coagulation factor XIII A subunit dimer) (UniProt P00488 2-732, zymogen dimer with activation peptide retained (paper residues 1-37 = entry 2-38; paper numbering = entry minus 1); initiator Met removed; limits follow the paper's domain boundaries (1-731) and PDB 1); test: ITC; 2.5 µM rFXIII-A2 in the cell, 25 µM rFXIII-B in the syringe; MicroCal200; one set of binding sites fitted in Origin, stepwise model FS ↔ MA + A1 ↔ MA2 fitted in Affinimeter; conditions: both partners purified

Row | Kd [1] [µM] | KD of the first binding event (sequential two-step model) [2] [µM] | KD of the second binding event (MA↔MA2) [2] [µM] | dH of the first binding event (sequential two-step model) [2] [kcal/mol] | dH of the second binding event (MA↔MA2) [2] [kcal/mol] | Binder
1 | 4.36 | – | – | – | – | recombinant FXIII-A2 (coagulation factor XIII A subunit dimer) (natural protein, zymogen dimer with activation peptide retained (paper residues 1-37 = entry 2-38; paper numbering = entry minus 1); initiator Met removed; limits follow the paper's domain boundaries (1-731) and PDB 1F13; any residual tag residues not stated) SETSRTAFGGRRAVPPNNSNAAEDDLPTVELQGVVPRGVNLQEFLNVTSVHLFKERWDTNKVDHHTDKYENNKLIVRRGQSFYVQIDFSRPYDPRRDLFRVEYVIGRYPQENKGTYIPVPIVSELQSGKWGAKIVMREDRSVRLSIQSSPKCIVGKFRMYVAVWTPYGVLRTSRNPETDTYILFNPWCEDDAVYLDNEKEREEYVLNDIGVIFYGEVNDIKTRSWSYGQFEDGILDTCLYVMDRAQMDLSGRGNPIKVSRVGSAMVNAKDDEGVLVGSWDNIYAYGVPPSAWTGSVDILLEYRSSENPVRYGQCWVFAGVFNTFLRCLGIPARIVTNYFSAHDNDANLQMDIFLEEDGNVNSKLTKDSVWNYHCWNEAWMTRPDLPVGFGGWQAVDSTPQENSDGMYRCGPASVQAIKHGHVCFQFDAPFVFAEVNSDLIYITAKKDGTHVVENVDATHIGKLIVTKQIGGDGMMDITDTYKFQEGQEEERLALETALMYGAKKPLNTEGVMKSRSNVDMDFEVENAVLGKDFKLSITFRNNSHNRYTITAYLSANITFYTGVPKAEFKKETFDVTLEPLSFKKEAVLIQAGEYMGQLLEQASLHFFVTARINETRDVLAKQKSTVLTIPEIIIKVRGTQVVGSDMTVTVEFTNPLKETLRNVWVHLDGPGVTRPMKKMFREIRPNSTVQWEEVCRPWVSGHRKLIASMSSDSLRHVYGELDVQIQRRPSM
2 | – | 0.0015 | 4.3 | -54.1 | -86 | recombinant FXIII-B (coagulation factor XIII B subunit) (natural protein, human, UniProt P05160 21-661, looked up, coagulation factor XIII B subunit, human cDNA in the pReciever-M01 mammalian expression vector; secreted protein; the stepwise ITC model treats the syringe species as single FXIII-B units; also called rFXIII-B; rFXIII-B2) EEKPCGFPHVENGRIAQYYYTFKSFYFPMSIDKKLSFFCLAGYTTESGRQEEQTTCTTEGWSPEPRCFKKCTKPDLSNGYISDVKLLYKIQENMRYGCASGYKTTGGKDEEVVQCLSDGWSSQPTCRKEHETCLAPELYNGNYSTTQKTFKVKDKVQYECATGYYTAGGKKTEEVECLTYGWSLTPKCTKLKCSSLRLIENGYFHPVKQTYEEGDVVQFFCHENYYLSGSDLIQCYNFGWYPESPVCEGRRNRCPPPPLPINSKIQTHSTTYRHGEIVHIECELNFEIHGSAEIRCEDGKWTEPPKCIEGQEKVACEEPPFIENGAANLHSKIYYNGDKVTYACKSGYLLHGSNEITCNRGKWTLPPECVENNENCKHPPVVMNGAVADGILASYATGSSVEYRCNEYYLLRGSKISRCEQGKWSSPPVCLEPCTVNVDYMNRNNIEMKWKYEGKVLHGDLIDFVCKQGYDLSPLTPLSELSVQCNRGEVKYPLCTRKESKGMCTSPPLIKHGVIISSTVDTYENGSSVEYRCFDHHFLEGSREAYCLDGMWTTPPLCLEPCTLSFTEMEKNNLLLKWDFDNRPHILHGEYIEFICRGDTYPAELYITGSILRMQCDRGQLKYPRCIPRQSTLSYQEPLRT
